# B1: HSP90AB1 (parent)
# chain: EADKNDKAVKDLVVLLFETALLSS
# B2: DYRK1B (parent)
# chain: RFQDLVLRMLEYEPAARISPLGAL
# Variants of: B1
# Assay: protein stability index of a GFP-peptide fusion (GPS, HEK-293T) (PSI 1-6); higher = more stable
# Details: c terminus: a fixed tail appended
# 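Also: lentivirally expressed fusions sorted by FACS into six bins by GFP to DsRed ratio, PSI derived from sequencing read proportions per bin multiplied by bin number.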
row,Variant,protein stability index
1,EADKNDKAVKDLVVLAFETALLSS,3.56
2,EADKNDKAVKDLVVLCFETALLSS,3.07
3,EADKNDKAVKDLVVLDFETALLSS,4.88
4,EADKNDKAVKDLVVLEFETALLSS,4.31
5,EADKNDKAVKDLVVLFFETALLSS,1.69
6,EADKNDKAVKDLVVLGFETALLSS,4.18
7,EADKNDKAVKDLVVLHFETALLSS,3.34
8,EADKNDKAVKDLVVLIFETALLSS,2.07
9,EADKNDKAVKDLVVLKFETALLSS,3.62
10,EADKNDKAVKDLVVLNFETALLSS,4.05
11,EADKNDKAVKDLVVLPFETALLSS,4.67
12,EADKNDKAVKDLVVLQFETALLSS,4.37
13,EADKNDKAVKDLVVLRFETALLSS,3.37
14,EADKNDKAVKDLVVLSFETALLSS,3.94
15,EADKNDKAVKDLVVLTFETALLSS,3.63
16,EADKNDKAVKDLVVLVFETALLSS,2.16
17,EADKNDKAVKDLVVLWFETALLSS,2.2
18,EADKNDKAVKDLVVLYFETALLSS,2.27
19,EADKNDKAVKDLVVLLAETALLSS,3.56
20,EADKNDKAVKDLVVLLCETALLSS,2.59
21,EADKNDKAVKDLVVLLDETALLSS,4.65
22,EADKNDKAVKDLVVLLEETALLSS,4.22
23,EADKNDKAVKDLVVLLGETALLSS,4.26

row,Variant,protein stability index
1,EADKNDKAVKDLVVLLHETALLSS,3.13
2,EADKNDKAVKDLVVLLIETALLSS,1.84
3,EADKNDKAVKDLVVLLKETALLSS,3.76
4,EADKNDKAVKDLVVLLLETALLSS,1.76
5,EADKNDKAVKDLVVLLMETALLSS,2.1
6,EADKNDKAVKDLVVLLNETALLSS,3.94
7,EADKNDKAVKDLVVLLPETALLSS,4.3
8,EADKNDKAVKDLVVLLQETALLSS,3.82
9,EADKNDKAVKDLVVLLRETALLSS,3.31
10,EADKNDKAVKDLVVLLSETALLSS,3.89
11,EADKNDKAVKDLVVLLTETALLSS,3.67
12,EADKNDKAVKDLVVLLVETALLSS,1.92
13,EADKNDKAVKDLVVLLWETALLSS,2.26
14,EADKNDKAVKDLVVLLYETALLSS,2.13
15,EADKNDKAVKDLVVLLFATALLSS,2.2
16,EADKNDKAVKDLVVLLFCTALLSS,1.82
17,EADKNDKAVKDLVVLLFDTALLSS,1.33
18,EADKNDKAVKDLVVLLFFTALLSS,3.16
19,EADKNDKAVKDLVVLLFGTALLSS,4.31
20,EADKNDKAVKDLVVLLFHTALLSS,2.07
21,EADKNDKAVKDLVVLLFITALLSS,3.81
22,EADKNDKAVKDLVVLLFKTALLSS,2.42
23,EADKNDKAVKDLVVLLFLTALLSS,2.61

row,Variant,protein stability index
1,EADKNDKAVKDLVVLLFMTALLSS,3
2,EADKNDKAVKDLVVLLFNTALLSS,1.7
3,EADKNDKAVKDLVVLLFPTALLSS,2.73
4,EADKNDKAVKDLVVLLFQTALLSS,1.77
5,EADKNDKAVKDLVVLLFRTALLSS,2.21
6,EADKNDKAVKDLVVLLFSTALLSS,2.16
7,EADKNDKAVKDLVVLLFTTALLSS,2.01
8,EADKNDKAVKDLVVLLFVTALLSS,4.33
9,EADKNDKAVKDLVVLLFWTALLSS,2.79
10,EADKNDKAVKDLVVLLFEAALLSS,1.42
11,EADKNDKAVKDLVVLLFECALLSS,2.54
12,EADKNDKAVKDLVVLLFEDALLSS,2.32
13,EADKNDKAVKDLVVLLFEEALLSS,2.71
14,EADKNDKAVKDLVVLLFEFALLSS,2.57
15,EADKNDKAVKDLVVLLFEGALLSS,2.49
16,EADKNDKAVKDLVVLLFEHALLSS,2.2
17,EADKNDKAVKDLVVLLFEIALLSS,2.92
18,EADKNDKAVKDLVVLLFEKALLSS,2.2
19,EADKNDKAVKDLVVLLFELALLSS,1.98
20,EADKNDKAVKDLVVLLFEMALLSS,2.29
21,EADKNDKAVKDLVVLLFENALLSS,2.15
22,EADKNDKAVKDLVVLLFEPALLSS,1.83
23,EADKNDKAVKDLVVLLFEQALLSS,1.75

row,Variant,protein stability index
1,EADKNDKAVKDLVVLLFERALLSS,1.99
2,EADKNDKAVKDLVVLLFESALLSS,2.15
3,EADKNDKAVKDLVVLLFEVALLSS,2.11
4,EADKNDKAVKDLVVLLFEWALLSS,2.52
5,EADKNDKAVKDLVVLLFEYALLSS,2.02
6,EADKNDKAVKDLVVLLFETCLLSS,1.47
7,EADKNDKAVKDLVVLLFETDLLSS,2.85
8,EADKNDKAVKDLVVLLFETELLSS,2.43
9,EADKNDKAVKDLVVLLFETFLLSS,2.42
10,EADKNDKAVKDLVVLLFETGLLSS,2.46
11,EADKNDKAVKDLVVLLFETILLSS,2.19
12,EADKNDKAVKDLVVLLFETLLLSS,1.44
13,EADKNDKAVKDLVVLLFETMLLSS,1.97
14,EADKNDKAVKDLVVLLFETNLLSS,2.16
15,EADKNDKAVKDLVVLLFETPLLSS,2.27
16,EADKNDKAVKDLVVLLFETQLLSS,2.44
17,EADKNDKAVKDLVVLLFETRLLSS,2.42
18,EADKNDKAVKDLVVLLFETSLLSS,2.8
19,EADKNDKAVKDLVVLLFETTLLSS,1.99
20,EADKNDKAVKDLVVLLFETVLLSS,1.88
21,EADKNDKAVKDLVVLLFETWLLSS,2.07
22,EADKNDKAVKDLVVLLFETYLLSS,1.44
23,EADKNDKAVKDLVVLLFETAALSS,2.49

row,Variant,protein stability index
1,EADKNDKAVKDLVVLLFETACLSS,2.14
2,EADKNDKAVKDLVVLLFETADLSS,2.57
3,EADKNDKAVKDLVVLLFETAFLSS,2.13
4,EADKNDKAVKDLVVLLFETAGLSS,2.58
5,EADKNDKAVKDLVVLLFETAHLSS,2.27
6,EADKNDKAVKDLVVLLFETAILSS,2.17
7,EADKNDKAVKDLVVLLFETAKLSS,2.35
8,EADKNDKAVKDLVVLLFETAMLSS,1.86
9,EADKNDKAVKDLVVLLFETANLSS,3.31
10,EADKNDKAVKDLVVLLFETAPLSS,2.88
11,EADKNDKAVKDLVVLLFETARLSS,2.11
12,EADKNDKAVKDLVVLLFETASLSS,2.28
13,EADKNDKAVKDLVVLLFETATLSS,2.79
14,EADKNDKAVKDLVVLLFETAVLSS,1.94
15,EADKNDKAVKDLVVLLFETAYLSS,1.48
16,EADKNDKAVKDLVVLLFETALASS,2.85
17,EADKNDKAVKDLVVLLFETALDSS,3.01
18,EADKNDKAVKDLVVLLFETALESS,2.95
19,EADKNDKAVKDLVVLLFETALFSS,1.8
20,EADKNDKAVKDLVVLLFETALGSS,2.77
21,EADKNDKAVKDLVVLLFETALHSS,2.18
22,EADKNDKAVKDLVVLLFETALMSS,1.86
23,EADKNDKAVKDLVVLLFETALNSS,2.68

row,Variant,protein stability index
1,EADKNDKAVKDLVVLLFETALQSS,2.29
2,EADKNDKAVKDLVVLLFETALRSS,2.09
3,EADKNDKAVKDLVVLLFETALSSS,2.7
4,EADKNDKAVKDLVVLLFETALTSS,2.29
5,EADKNDKAVKDLVVLLFETALVSS,2.17
6,EADKNDKAVKDLVVLLFETALWSS,1.64
7,EADKNDKAVKDLVVLLFETALYSS,1.5
8,EADKNDKAVKDLVVLLFETALLAS,2.21
9,EADKNDKAVKDLVVLLFETALLCS,2.22
10,EADKNDKAVKDLVVLLFETALLDS,2.26
11,EADKNDKAVKDLVVLLFETALLFS,1.68
12,EADKNDKAVKDLVVLLFETALLGS,1.95
13,EADKNDKAVKDLVVLLFETALLHS,2.26
14,EADKNDKAVKDLVVLLFETALLIS,3.41
15,EADKNDKAVKDLVVLLFETALLKS,1.91
16,EADKNDKAVKDLVVLLFETALLLS,3.33
17,EADKNDKAVKDLVVLLFETALLMS,2.65
18,EADKNDKAVKDLVVLLFETALLNS,1.96
19,EADKNDKAVKDLVVLLFETALLPS,1.96
20,EADKNDKAVKDLVVLLFETALLQS,1.64
21,EADKNDKAVKDLVVLLFETALLRS,2.54
22,EADKNDKAVKDLVVLLFETALLTS,2.15
23,EADKNDKAVKDLVVLLFETALLVS,2.41

row,Variant,protein stability index
1,EADKNDKAVKDLVVLLFETALLWS,2.27
2,EADKNDKAVKDLVVLLFETALLYS,1.63
3,EADKNDKAVKDLVVLLFETALLSC,1.4
4,EADKNDKAVKDLVVLLFETALLSD,1.93
5,EADKNDKAVKDLVVLLFETALLSE,1.93
6,EADKNDKAVKDLVVLLFETALLSF,2.11
7,EADKNDKAVKDLVVLLFETALLSH,1.89
8,EADKNDKAVKDLVVLLFETALLSI,1.51
9,EADKNDKAVKDLVVLLFETALLSL,2.06
10,EADKNDKAVKDLVVLLFETALLSM,2.16
11,EADKNDKAVKDLVVLLFETALLSN,2.13
12,EADKNDKAVKDLVVLLFETALLSP,2.72
13,EADKNDKAVKDLVVLLFETALLSQ,1.67
14,EADKNDKAVKDLVVLLFETALLSR,1.65
15,EADKNDKAVKDLVVLLFETALLST,1.91
16,EADKNDKAVKDLVVLLFETALLSV,2.29
17,EADKNDKAVKDLVVLLFETALLSW,1.75
18,EADKNDKAVKDLVVLLFETALLSY,2.04

# Variants of: B2
# Assay: as above
# Details: c terminus: a fixed tail appended
row,Variant,protein stability index
1,DFQDLVLRMLEYEPAARISPLGAL,1.54
2,FFQDLVLRMLEYEPAARISPLGAL,3.52
3,GFQDLVLRMLEYEPAARISPLGAL,1.58
4,HFQDLVLRMLEYEPAARISPLGAL,2.31
5,KFQDLVLRMLEYEPAARISPLGAL,2.19
6,MFQDLVLRMLEYEPAARISPLGAL,3.36
7,NFQDLVLRMLEYEPAARISPLGAL,2.94
8,PFQDLVLRMLEYEPAARISPLGAL,3.11
9,SFQDLVLRMLEYEPAARISPLGAL,4.75
10,TFQDLVLRMLEYEPAARISPLGAL,2.57
11,WFQDLVLRMLEYEPAARISPLGAL,3
12,YFQDLVLRMLEYEPAARISPLGAL,2.47
13,RCQDLVLRMLEYEPAARISPLGAL,2.36
14,RDQDLVLRMLEYEPAARISPLGAL,2.38
15,REQDLVLRMLEYEPAARISPLGAL,3.27
16,RGQDLVLRMLEYEPAARISPLGAL,2.18

row,Variant,protein stability index
1,RHQDLVLRMLEYEPAARISPLGAL,2.53
2,RKQDLVLRMLEYEPAARISPLGAL,2.15
3,RMQDLVLRMLEYEPAARISPLGAL,3.25
4,RNQDLVLRMLEYEPAARISPLGAL,2.14
5,RPQDLVLRMLEYEPAARISPLGAL,1.76
6,RQQDLVLRMLEYEPAARISPLGAL,3.35
7,RRQDLVLRMLEYEPAARISPLGAL,2.38
8,RTQDLVLRMLEYEPAARISPLGAL,2.42
9,RVQDLVLRMLEYEPAARISPLGAL,3.5
10,RWQDLVLRMLEYEPAARISPLGAL,1.39
11,RYQDLVLRMLEYEPAARISPLGAL,3.05
12,RFDDLVLRMLEYEPAARISPLGAL,1.82
13,RFEDLVLRMLEYEPAARISPLGAL,2.19
14,RFHDLVLRMLEYEPAARISPLGAL,1.95
15,RFIDLVLRMLEYEPAARISPLGAL,2.91
16,RFKDLVLRMLEYEPAARISPLGAL,2.03

# From the supplement of paper PMC10567573
